In article PMC3815950 (Microbial biotechnology, 2009):
Several values for one entry are separate records, joined by “and”; a condition that tells them apart may be missing. Equal values may be shown once.

How the values were obtained:
[1] = substrate: [H][C@]12SCC(COC(C)=O)=C(C(=O)O)N1C(=O)[C@H]2NC(=O)CCC[C@@H](N)C(=O)O; test: acetate release, Michaelis-Menten; type: biochemical, Thermotoga maritima; details: 50 mM sodium phosphate pH 6.5, 60 °C
SEC = molecular target: the molecule itself; test: SEC

B1: Thermotoga maritima acetyl xylan esterase AxeA (enzyme)
chain: MAFFDLPLEELKKYRPERYEEKDFDEFWEETLAESEKFPLDPVFERMESHLKTVEAYDVTFSGYRGQRIKGWLLVPKLEEEKLPCVVQYIGYNGGRGFPHDWLFWPSMGYICFVMDTRGQGSGWLKGDTPDYPEGPVDPQYPGFMTRGILDPRTYYYRRVFTDAVRAVEAAASFPQVDQERIVIAGGSQGGGIALAVSALSKKAKALLCDVPFLCHFRRAVQLVDTHPYAEITNFLKTHRDKEEIVFRTLSYFDGVNFAARAKIPALFSVGLMDNICPPSTVFAAYNYYAGPKEIRIYPYNNHEGGGSFQAVEQVKFLKKLFEKG
Km [1]: 4.18 ± 0.97 mM
Vmax [1]: 19.2 µmol/min/mg
kcat [1]: 11.8 s⁻¹
kcat/Km [1]: 2830 M⁻¹ s⁻¹
stoichiometry N (SEC): 6 and 2
